Results as given in the RNAGym collection of RNA variant scans (doi:10.7554/elife.80360).

B1: Hammerhead Ribozyme (parent)
chain: ACCGGAUGUGCUUUCCGGUCUGAUGAGUCCGUGAGGACGAAACAG

Variants of: B1
Assay: self-cleavage, relative activity (ratio to wild type); higher = more cleavage; co-transcriptional

Variant	self-cleavage
G4C U13A	1.04
G4C U13C	0.856
G4C U13G	0.962
G4C U14A	0.512
G4C U14C	0.475
G4C U14G	0.733
G4C U19A	0.283
G4C U19C	0.297
G4C U19G	0.322
G4C U21A	0.309
G4C U21C	0.363
G4C U21G	0.239
G4C U24A	0.777
G4C U24C	0.631
G4C U24G	0.599
G4C U28A	0.297
G4C U28C	0.331
G4C U28G	0.326
G4C U32A	0.743
G4C U32C	0.736
G4C U32G	0.324
G4U	0.515
G4U A6C	0.282
G4U A6G	0.327

Variant	self-cleavage
G4U A6U	0.387
G4U A23C	0.257
G4U A23G	0.303
G4U A23U	0.333
G4U A26C	0.35
G4U A26G	0.274
G4U A26U	0.378
G4U A34C	0.296
G4U A34G	0.452
G4U A34U	0.43
G4U A37C	0.329
G4U A37G	0.305
G4U A37U	0.286
G4U A40C	0.224
G4U A40G	0.303
G4U A40U	0.297
G4U A41C	0.276
G4U A41G	0.263
G4U A41U	0.308
G4U A42C	0.265
G4U A42G	0.336
G4U A42U	0.307
G4U A44C	0.401
G4U A44G	0.789

Variant	self-cleavage
G4U A44U	0.33
G4U C11A	0.502
G4U C11G	0.52
G4U C11U	0.319
G4U C15A	0.425
G4U C15G	0.436
G4U C15U	0.523
G4U C16A	1.07
G4U C16G	1.09
G4U C16U	1.05
G4U C20A	0.294
G4U C20G	0.272
G4U C20U	0.364
G4U C29A	0.265
G4U C29G	0.358
G4U C29U	0.413
G4U C30A	0.4
G4U C30G	0.305
G4U C30U	0.558
G4U C38A	0.289
G4U C38G	0.323
G4U C38U	0.315
G4U C43A	0.272
G4U C43G	0.295

Variant	self-cleavage
G4U C43U	0.261
G4U G5A	0.284
G4U G5C	0.352
G4U G5U	0.359
G4U G8A	0.47
G4U G8C	0.377
G4U G8U	0.933
G4U G10A	0.588
G4U G10C	0.469
G4U G10U	0.558
G4U G17A	0.316
G4U G17C	0.34
G4U G17U	0.294
G4U G18A	0.297
G4U G18C	0.275
G4U G18U	0.323
G4U G22A	0.297
G4U G22C	0.345
G4U G22U	0.296
G4U G25A	0.25
G4U G25C	0.339
G4U G25U	0.253
G4U G27A	0.312
G4U G27C	0.35

Variant	self-cleavage
G4U G27U	0.294
G4U G31A	0.612
G4U G31C	0.56
G4U G31U	0.75
G4U G33A	0.608
G4U G33C	0.416
G4U G33U	0.576
G4U G35A	0.337
G4U G35C	0.326
G4U G35U	0.388
G4U G36A	0.321
G4U G36C	0.313
G4U G36U	0.267
G4U G39A	0.263
G4U G39C	0.266
G4U G39U	0.29
G4U G45A	0.351
G4U G45C	0.324
G4U G45U	0.446
G4U U7A	0.432
G4U U7C	0.361
G4U U7G	0.381
G4U U9A	0.395
G4U U9C	0.413

Variant	self-cleavage
G4U U9G	0.368
G4U U12A	0.547
G4U U12C	0.496
G4U U12G	0.564
G4U U13A	1.14
G4U U13C	0.634
G4U U13G	0.725
G4U U14A	0.469
G4U U14C	0.416
G4U U14G	0.722
G4U U19A	0.304
G4U U19C	0.345
G4U U19G	0.343
G4U U21A	0.342
G4U U21C	0.352
G4U U21G	0.325
G4U U24A	0.442
G4U U24C	0.549
G4U U24G	0.372
G4U U28A	0.234
G4U U28C	0.266
G4U U28G	0.308
G4U U32A	0.507
G4U U32C	0.487

Variant	self-cleavage
G4U U32G	0.316
G5A	1.32
G5A A6C	0.483
G5A A6G	0.82
G5A A6U	0.696
G5A A23C	0.315
G5A A23G	0.385
G5A A23U	0.304
G5A A26C	0.464
G5A A26G	0.398
G5A A26U	0.66
G5A A34C	1.1
G5A A34G	1.2
G5A A34U	1.06
G5A A37C	0.542
G5A A37G	0.773
G5A A37U	0.603
G5A A40C	0.476
G5A A40G	0.379
G5A A40U	0.409
G5A A41C	0.325
G5A A41G	0.327
G5A A41U	0.327
